Laboratory results: patent publication US20200179316A1

Molecular target: Sec23a/Sec24d (full-length, wild type) (H. sapiens) (UniProt Q15436)
Assay: cell-based or functional assay
Details: scale: % of protein present in starting permeabilized cells

Chain of Sec23a/Sec24d (full-length, wild type) (H. sapiens) (Q15436 whole entry, chain 1 of 2): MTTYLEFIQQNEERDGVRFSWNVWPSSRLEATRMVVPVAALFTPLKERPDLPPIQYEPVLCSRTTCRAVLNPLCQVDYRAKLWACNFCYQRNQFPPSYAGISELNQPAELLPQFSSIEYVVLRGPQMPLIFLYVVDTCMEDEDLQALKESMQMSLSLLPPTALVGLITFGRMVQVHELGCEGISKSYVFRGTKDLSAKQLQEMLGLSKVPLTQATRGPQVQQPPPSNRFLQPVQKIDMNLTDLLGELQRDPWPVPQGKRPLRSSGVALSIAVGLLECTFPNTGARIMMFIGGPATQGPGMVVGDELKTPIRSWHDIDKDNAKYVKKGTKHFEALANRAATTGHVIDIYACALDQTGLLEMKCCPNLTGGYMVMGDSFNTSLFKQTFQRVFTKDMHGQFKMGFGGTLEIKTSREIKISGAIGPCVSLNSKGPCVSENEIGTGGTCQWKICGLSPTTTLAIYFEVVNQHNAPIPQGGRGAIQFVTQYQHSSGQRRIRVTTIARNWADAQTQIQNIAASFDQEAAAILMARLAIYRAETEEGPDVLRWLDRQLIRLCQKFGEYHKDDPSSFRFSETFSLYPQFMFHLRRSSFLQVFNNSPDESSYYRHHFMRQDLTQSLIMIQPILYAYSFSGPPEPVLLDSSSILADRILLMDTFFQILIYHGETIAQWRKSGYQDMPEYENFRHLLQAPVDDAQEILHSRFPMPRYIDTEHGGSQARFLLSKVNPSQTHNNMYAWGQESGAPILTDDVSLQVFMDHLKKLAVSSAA
Chain of Sec23a/Sec24d (full-length, wild type) (H. sapiens) (O94855 other isoform, or with tags, fused parts or gaps, chain 2 of 2, further chain): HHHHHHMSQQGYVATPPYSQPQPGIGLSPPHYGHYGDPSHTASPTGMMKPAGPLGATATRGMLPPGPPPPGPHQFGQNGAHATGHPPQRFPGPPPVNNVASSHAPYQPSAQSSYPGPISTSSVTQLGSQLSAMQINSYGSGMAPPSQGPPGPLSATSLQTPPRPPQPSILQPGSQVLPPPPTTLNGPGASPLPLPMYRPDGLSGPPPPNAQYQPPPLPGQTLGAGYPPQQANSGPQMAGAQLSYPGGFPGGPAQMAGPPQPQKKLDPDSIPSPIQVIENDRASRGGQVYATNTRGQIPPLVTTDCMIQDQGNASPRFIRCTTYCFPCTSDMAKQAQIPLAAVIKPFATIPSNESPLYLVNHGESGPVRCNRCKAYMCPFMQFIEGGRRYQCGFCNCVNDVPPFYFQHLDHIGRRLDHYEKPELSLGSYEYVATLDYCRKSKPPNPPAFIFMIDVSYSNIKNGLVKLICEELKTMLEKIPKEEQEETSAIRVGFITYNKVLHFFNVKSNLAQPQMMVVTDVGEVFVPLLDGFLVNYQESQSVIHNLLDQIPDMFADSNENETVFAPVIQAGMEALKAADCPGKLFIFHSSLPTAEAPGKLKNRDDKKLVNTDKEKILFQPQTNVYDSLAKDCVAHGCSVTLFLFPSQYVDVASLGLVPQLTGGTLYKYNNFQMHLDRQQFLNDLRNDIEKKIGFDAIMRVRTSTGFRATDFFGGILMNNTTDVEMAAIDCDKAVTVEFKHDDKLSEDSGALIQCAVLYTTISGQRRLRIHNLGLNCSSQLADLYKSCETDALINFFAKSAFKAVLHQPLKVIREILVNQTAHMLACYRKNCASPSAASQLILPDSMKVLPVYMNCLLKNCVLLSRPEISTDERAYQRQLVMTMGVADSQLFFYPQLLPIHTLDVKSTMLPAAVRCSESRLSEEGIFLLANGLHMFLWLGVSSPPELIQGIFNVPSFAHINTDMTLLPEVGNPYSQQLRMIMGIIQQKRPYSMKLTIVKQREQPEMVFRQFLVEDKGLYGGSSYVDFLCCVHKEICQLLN

| packaging efficiency with wild-type COPII, CHO-LDLRG544V cells | packaging efficiency with wild-type COPII, wild-type CHO cells | Substance |
| --- | --- | --- |
| 8.7 | 10.9 | p24α2 |
| 10.6 | – | p24β1 |

Further lines, the substance ahead of its results:

| Substance | packaging efficiency with wild-type COPII, CHO-LDLRG544V cells | packaging efficiency with wild-type COPII, wild-type CHO cells |
| --- | --- | --- |
| ERGIC-53 | 4.5 | – |
| p24δ1 | 7.7 | 4.6 |
| p24α3 | 6.4 | 6.4 |
